The values below are quoted from earlier work in PMC8900292.

In the series the target is VAMP2 juxtamembrane LD (UniProt P63027).
Sequence of UniProt P63027 (P63027 whole entry, looked up): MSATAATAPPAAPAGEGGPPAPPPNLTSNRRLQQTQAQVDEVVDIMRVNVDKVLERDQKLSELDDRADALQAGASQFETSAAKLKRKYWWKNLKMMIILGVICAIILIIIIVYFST

In general, Kd refers to the concentration at which binding is half-saturated. With Munc13-1 MUN (from UniProt Q62768), the Kd was 10 µM.
